Laboratory results taken from the DeepSol protein solubility set.

Assay: soluble on expression in E. coli; label from the status in PepcDB or PDB records

| Sequence | soluble on expression in E. coli |
| --- | --- |
| MLSATLLNRTVFHSLSPLHSLAHLASDMESSVNKAPSLIAAIVLGLGISACGYFVGDGVKHLKTNNRYVNVRGLSEKEVRADTAELTIAINFKGNVPGELFPKLEEAQKKIVAELNAQGINEKEIILGQWTSKRTDSFYLKDDPTMPRYNADGSVTIKTHNVAAVEKVVAKLNELQVATDGAIAESKVAYRFNGIGALRAEMIAAATKDARNAALQFATDSGSQVGSISDASQGVFQIFASGSDEDDPTAINKTVRVVTTVTYALQD | not soluble |
| MLSDYEEFLRLEKARKIILEILNEKGRDALYDLSGLSGGFLIDEKDKALLNTYIGSSYFAEKVNEYGLKHLGGDENDKCVGFNRTSSAILATILALKPKKVIHYLPELPGHPSIERSCKIVNAKYFESDKVGEILNKIDKDTLVIITGSTMDLKVIELENFKKVINTAKNKEAIVFVDDASGARVRLLFNQPPALKLGADLVVTSTDKLMEGPRGGLLAGKKELVDKIYIEGTKFGLEAQPPLLAGIYRALKNFNLERIRKAFERAKNFDLSKIEKLNKELKAIDDNINIVYERTPTGFVIKRVYKDDTINIKKLIEIGFNLLKNYGIITITVAGMPGASKSLRIDLTSRDAERIDDNYIIKAIVESIKMAFKS | soluble |
| MLSIIIPVYNEKGNILELTSRIKSALKNNEYEIVFVDDSTDETPKIIESLALKYNNIRLKHRKGKKGLSSAVIDGFKLARGDVLSVMDGDLQHPPEMLESMLFQMKKDTDIVICSRFVLGGKEEGLNIFRKFASFIARLIGKIFLKPLRKISDPTAGFFMLKRKVIKNRDLRAIGWKILIEILVMGDYKRVVELPYSFKRRKHEKSKFTISVQGQYLKQIVSLFIRSKKYNIKLEHHHHHH | soluble |
| MLSIKDLHVSVEDKAILRGLSLDVRPGEVHAIMGPNGSGKSTLSATLAGREDYEVTGGTVEFKGKDLLALSPEDRAGEGIFMAFQYPVEIPGVSNQFFLQTALNAVRSYRGQETLDRFDFQDLMEEKIALLKMPEDLLTRSVNVGFSGGEKKRNDILQMAVLEPELCILDESDSGLDIDALKVVADGVNSLRDGKRSFIIVTHYQRILDYIKPDYVHVLYQGRIVKSGDFTLVKQLEEQGYGWLTEQQ | not soluble |
| MLSLNLPVFDTKINVRNGKNVIFDVIRKRYVALTPEEWVRQHFVHFLIAHKGYPNALLANEVMVKLNGTTKRCDTVLYRRDLSARMIVEYKAPHIEITQAVFDQITRYNMVLKVDYLIVSNGMQHYCCRMDYAHQSYTFLQDIPDYNAL | not soluble |
| MLSTIEYLSLLRKYMRENAVKYGISRMGIFGSVARGEQHDGSDVDICVEIDRPSIFTLVHIKEELEKLFKCPVDVVRLRNNMDELLRNCINKDGIYV | not soluble |
| MLSYRHSFHAGNHADVLKHTVQSLIIESLKEKDKPFLYLDTHAGAGRYQLGSEHAERTGEYLEGIARIWQQDDLPAELEAYINVVKHFNRSGQLRYYPGSPLIARQLLREQDSLQLTELHPSDYPLLRSGFQKDSRARVEKADGFQQLKAKLPPVSRRGLILIDPPYEMKTDYQAVVSGIAEGYKRFATGTYALWYPVVLRQQIKRMIHDLEATGIRKILQIELAVLPDSDRRGMTASGMIVINPPWKLEQQMNNVLSWLHSKLVPAGTGHATVSWIVPE | not soluble |
| MLTITQALVDQIVAHARQDHPDEACGVVAGPEGSGRPERFIPMLNAARSPTFYEFDSGDLLKLYREMDDRDEEPVIIYHSHTATEAYPSRTDISYANEPGAHYVLVSTADADDAGPFQFRSFQIVAGEVTEEEVKVVEAYLEHHHHHH | soluble |
| MLTKQPIAKKLNVSADVVWKVVRNIGRLDVWFPIIETCRVEGEGAGALRYMTVAGGGEIRDTIEEIDDVTMRLTYLRPLSPFPVTYYKGTVEVFKSYDGLAIVVWTIDFESEPEDAASVAELVRSAISDGIDGMERDLRGALEHHHHHH | soluble |
| MLTVDLSGKKALVMGVTNQRSLGFAIAAKLKEAGAEVALSYQAERLRPEAEKLAEALGGALLFRADVTQDEELDALFAGVKEAFGGLDYLVHAIAFAPREAMEGRYIDTRRQDWLLALEVSAYSLVAVARRAEPLLREGGGIVTLTYYASEKVVPKYNVMAIAKAALEASVRYLAYELGPKGVRVNAISAGPVRTVAARSIPGFTKMYDRVAQTAPLRRNITQEEVGNLGLFLLSPLASGITGEVVYVDAGYHIMGMELEG | soluble |
| MLVFIDDGSTNIKLQWQESDGTIKQHISPNSFKREWAVSFGDKKVFNYTLNGEQYSFDPISPDAVVTTNIAWQYSDVNVVAVHHALLTSGLPVSEVDIVCTLPLTEYYDRNNQPNTENIERKKANFRKKITLNGGDTFTIKDVKVMPESIPAGYEVLQELDELDSLLIIDLGGTTLDISQVMGKLSGISKIYGDSSLGVSLVTSAVKDALSLARTKGSSYLADDIIIHRKDNNYLKQRINDENKISIVTEAMNEALRKLEQRVLNTLNEFSGYTHVMVIGGGAELICDAVKKHTQIRDERFFKTNNSQYDLVNGMYLIGN | soluble |
| MLVGNIVKEVLAYKKGQIQQKLSSPQAFVSSRFQEKLQSEPAKETKGTTQLAKVEDMSQPVQSTKIETVVNKPEQSIHKVEEASKPEEKAETKNVDEVQVAQKEFERRFPETKNEAADTWGLTKKYNIQKIRSSNEGKYEDIIDRVSHTYGIPKTLIQKMIEVESDFNPKTVSHAGAKGLMQLMPANVKEMGIKNPFSPAESIEGGVKELSGYLKKNNGDLVLALASYNAGPGNVRKYGGVPPFKETQGYIKKILNIDVSK | not soluble |
| MLVPRGSMAPIGSVVIVGRIILSGRGGPITAYSQQTRGLLGCIITSLTGRDKNQVEGEVQVVSTATQSFLATCVNGACWTVFHGAGSKTLAGPKGPITQMYTNVDQDLVGWPAPPGARSLTPCTCGSSDLYLVTRHADVIPVRRRGDTRGSLLSPRPISYLKGSSGGPLLCPSGHVVGIFRAAVCTRGVAKAVDFIPVESMETTMR | soluble |
| MLVTKKEISVANIGEELWRFSNSSYTTGSPWTETQFAEDFAQENSEYLFLVENGQWLGYIAYHFILDEAEISHVVVNGQKQHQGIGCQLMKAFKEYVKSRDITQIFLEVRESNILAQKLYEKTGFRKVAVRKNYYKEPQENAFVMCAKLRKEAQ | not soluble |
| MLVTTTERISGQEYEIIGEVFGLTTRSKNMFKDLGAGLKSVVGGEIKGYTDMQREARDQAIERLKAEASKLGADAVVMMRFDSGTIGTDMQSVVAYGTAVKYILEHHHHHH | not soluble |
| MLWTDCLTRLRQELSDNVFAMWIRPLVAEETTDSLRLYAPNPYWTRYIQEHHLELISILVEQLSEGRIRQVEILVDSRPGAILSPAEQPATTTAALSSTPVVPQRVKKEVVEPAATQSNKILNSKKRLLNPLFTFSLFVEGRSNQMAAETCRKVLTQLGASQHNPLFLYGPTGLGKTHLMQAVGNALLQAKPNARVMYMTAESFVQDFVSSLQKGKVEEFKKNCRSLDLLLVDDIHLLAGKEASLVEFFYTFNALLDESKQIILTSDRYPKELTELDPRLVSRFSWGLSVGVEPPDIETRIEILLKKAENSGVDLPRNCALFIAQQVVANVRELEGALNKVVAIARFKGSQIDLDVVRESLKDVLAIRARTISVENIQRVVSEYFRIPLKELIGPKRTRIYARPRQLAMGLARELTGDSFPEIGMAFGGRDHSTVMHACEKVQSLKQEDPIFNEDYKNLLRLLQSLEHHHHHH | not soluble |
| MLYANKTVGNTSYKLSKKSIKEQTMLQKNKDLLIEIATRDVKSVFAYFKTTRDGLSMKEAQKRIQVYGRNELTSKRALLAEVMMKLGGMIPGFSKQRVCDELQRETITVSRVECSSSTGLNSELKMMEIPVQELVPGDMIFLSAGDAVPADVRIIYADDLLVNESVLTGNEANIEKFESCYHLERKRFIPLKRMKDYNPLELENVCFKGSHIVSGNAKAIVVSTGKNTYSGILHTCCSRTS | not soluble |
